Results taken from publication PMC10090080.

Key:
[1] = target: portal protein pUL104 (human cytomegalovirus strain AD169); test: cryo-EM structure
[2] = target: pUL93 (human cytomegalovirus strain AD169); test: cryo-EM structure

For portal protein pUL104 (natural protein), the stoichiometry N [1] was 12.

Work on pUL77 (natural protein) yielded a stoichiometry N [2] of 2.
